In US5942491A (priority 1996, dated 1999):
Entries after “also recorded” stand apart in the source; their conditions may differ. Like-named read-outs stand apart in the source and are kept apart here. Where no end group is shown, it is not given here.

B1: BP: Porcine myelin basic protein (Lilly) (protein, UniProt P81558 1-171, looked up)
Myelin basic protein: ASQKRPSQRHGSKYLASASTMDHARHGFLPRHRDTGIDSLGRFFGADRGAPKRGSGKDGHHAARTTHYGSLPQKAQHGRPQDENPVVHFFKNIVTPRTPPPSQGKGRGLSLSRFSWGAEGQKPGFGYGGRAPDYKPAHKGLKGAQDAQGTLSKIFKLGGRDSRSGSPMARR
B2: OA: chicken ovalbumin (Sigma) (protein, UniProt P01012 2-386, looked up)
Ovalbumin: GSIGAASMEFCFDVFKELKVHHANENIFYCPIAIMSALAMVYLGAKDSTRTQINKVVRFDKLPGFGDSIEAQCGTSVNVHSSLRDILNQITKPNDVYSFSLASRLYAEERYPILPEYLQCVKELYRGGLEPINFQTAADQARELINSWVESQTNGIIRNVLQPSSVDSQTAMVLVNAIVFKGLWEKAFKDEDTQAMPFRVTEQESKPVQMMYQIGLFRVASMASEKMKILELPFASGTMSMLVLLPDEVSGLEQLESIINFEKLTEWTSSNVMEERKIKVYLPRMKMEEKYNLTSVLMAMGITDVFSSSANLSGISSAESLKISQAVHAAHAEINEAGREVVGSAEAGVDAASVSEEFRADHPFLFCIKHIATNAVLFFGRCVSP

Columns and labels:
adjuvant arthritis [1] = type: in vivo, Lewis rats
adjuvant arthritis [2] = test system: adjuvant arthritis; parameters: species or system Lewis rats; details: rat, in vivo
adjuvant arthritis [3] = details: for Development of experimental allergic encephalomyelitis (EAE): arthritogenic doses of CFA (Mb) combined with MBP
adjuvant arthritis [4] = experiment: Adjuvant-induced model of arthritis, summary statements on prevention and treatment; type: in vivo, Lewis rats; details: summary statement

Molecule | Effect on the course of pre-existing arthritis (adjuvant arthritis [1]; rat, in vivo) | Remission of arthritis (adjuvant arthritis [1]; rat, in vivo) | Anti-arthritic activity after storage (adjuvant arthritis [1]; solvated and kept in refrigerator at 4 degrees centigrade for three months) | Protective effect against induction of adjuvant arthritis (adjuvant arthritis [2]) | Development of experimental allergic encephalomyelitis (EAE) (adjuvant arthritis [3]) | Development of experimental allergic encephalomyelitis (EAE) (adjuvant arthritis [3]; listed as MBP) | A. Number of animals inoculated/number of animals with arthritis (adjuvant arthritis [3]; rat, in vivo) | C. Average day of onset of arthritis (adjuvant arthritis [3]; rat, in vivo) [days] | D. Average duration of symptoms (adjuvant arthritis [3]; rat, in vivo) [days] | Effect of co-inoculation with FCA on arthritis (in words) (adjuvant arthritis [3]; rat, in vivo) | Effect of co-inoculation with FCA on arthritis (in words) (adjuvant arthritis [3]; rat, in vivo, listed as MBP) | Prevention and suppression/treatment of arthritis (summary in words) (adjuvant arthritis [4]; listed as MBP) | Prevention and suppression/treatment of arthritis (summary in words) (adjuvant arthritis [4]; listed as pMBP)
FSWGAEGQR [EAE peptide, EAE peptide derived from MBP, reference compound] | somewhat effective | – | – | – | – | – | – | – | – | – | – | – | –
B1 | marked effect on the course of the arthritis, reducing the clinical severity of the disease | complete remission in all three animals tested | no activity | minimal protective effects that were of limited clinical value | developed experimental allergic encephalomyelitis (EAE) | All six animals developed EAE | 0/6 | 0 | 0 | did not develop any symptoms of arthritis over a period of 2 months | none had any clinical signs or arthritis | prevent and suppress arthritis | appear to protect against and to effectively treat pre-existing arthritis clinical symptoms
B2 | – | – | – | very significant protective effects against induction of adjuvant arthritis; also recorded: protective | – | – | – | – | – | – | – | – | –
